Laboratory results from patent CN105585631A (BEIJING HEALTH GUARD BIOTECHNOLOGY CO LTD, dated 2016).

What was measured:
[1] = target: HPV-16 L1 VLP (重组人乳头瘤病毒-16型VLP蛋白, 未变性) (人乳头瘤病毒16型 (HPV16)) (UniProt P03101); assay: indirect ELISA, native VLP 2 ug/ml coated, antibody 0.3 ug/ml
[2] = target: HPV-16 L1 VLP (重组人乳头瘤病毒-16型VLP蛋白, 未变性) (人乳头瘤病毒16型 (HPV16)) (UniProt P03101); assay: competition ELISA on coated HPV16 VLP; HRP-labelled antibody 0.3 ug/ml; competitor: WHO international standard 05/134 at 0.5 IU/ml
[3] = target: HPV-16 L1 VLP (重组人乳头瘤病毒-16型VLP蛋白, 未变性) (人乳头瘤病毒16型 (HPV16)) (UniProt P03101); assay: indirect ELISA, HPV16 VLP 200 ng/well coated, antibody at 1, 0.2 and 0.04 ug/ml
HPV33 VLP = target: T1, HPV33 VLP (HPV33, UniProt P06416 1-499); assay: SPR, BIACORE 3000
T1 sequence: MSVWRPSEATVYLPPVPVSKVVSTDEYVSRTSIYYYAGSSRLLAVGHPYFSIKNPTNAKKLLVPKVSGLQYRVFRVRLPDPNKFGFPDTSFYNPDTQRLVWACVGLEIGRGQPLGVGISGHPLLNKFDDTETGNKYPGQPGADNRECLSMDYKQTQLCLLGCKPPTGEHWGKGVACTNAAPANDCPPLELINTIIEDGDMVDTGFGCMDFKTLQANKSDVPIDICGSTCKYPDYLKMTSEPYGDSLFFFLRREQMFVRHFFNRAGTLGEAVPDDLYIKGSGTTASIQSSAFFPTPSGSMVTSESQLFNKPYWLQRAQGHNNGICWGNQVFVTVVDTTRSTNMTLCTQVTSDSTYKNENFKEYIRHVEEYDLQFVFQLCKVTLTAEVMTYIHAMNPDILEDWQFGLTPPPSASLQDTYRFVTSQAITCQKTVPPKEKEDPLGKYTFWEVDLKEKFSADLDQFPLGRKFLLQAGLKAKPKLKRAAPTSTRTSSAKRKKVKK

HPV6 VLP = target: T2, HPV6 VLP (HPV6, UniProt P69899 1-500); assay: SPR, BIACORE 3000
T2 sequence: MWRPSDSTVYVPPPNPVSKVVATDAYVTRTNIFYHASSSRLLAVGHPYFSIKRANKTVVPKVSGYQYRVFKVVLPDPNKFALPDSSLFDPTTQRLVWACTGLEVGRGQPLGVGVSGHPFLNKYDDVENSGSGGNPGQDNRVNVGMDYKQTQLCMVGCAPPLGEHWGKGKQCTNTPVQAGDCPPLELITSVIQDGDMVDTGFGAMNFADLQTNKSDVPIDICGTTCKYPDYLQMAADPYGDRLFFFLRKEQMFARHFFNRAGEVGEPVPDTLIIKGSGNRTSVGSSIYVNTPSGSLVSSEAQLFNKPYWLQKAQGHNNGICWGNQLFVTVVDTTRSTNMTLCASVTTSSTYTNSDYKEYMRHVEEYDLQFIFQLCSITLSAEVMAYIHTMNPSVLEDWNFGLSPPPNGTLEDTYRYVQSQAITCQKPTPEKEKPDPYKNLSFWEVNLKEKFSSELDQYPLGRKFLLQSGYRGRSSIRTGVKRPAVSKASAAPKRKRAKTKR

HPV11 VLP = target: T3, HPV11 VLP (HPV11, UniProt P04012 1-501); assay: SPR, BIACORE 3000
T3 sequence: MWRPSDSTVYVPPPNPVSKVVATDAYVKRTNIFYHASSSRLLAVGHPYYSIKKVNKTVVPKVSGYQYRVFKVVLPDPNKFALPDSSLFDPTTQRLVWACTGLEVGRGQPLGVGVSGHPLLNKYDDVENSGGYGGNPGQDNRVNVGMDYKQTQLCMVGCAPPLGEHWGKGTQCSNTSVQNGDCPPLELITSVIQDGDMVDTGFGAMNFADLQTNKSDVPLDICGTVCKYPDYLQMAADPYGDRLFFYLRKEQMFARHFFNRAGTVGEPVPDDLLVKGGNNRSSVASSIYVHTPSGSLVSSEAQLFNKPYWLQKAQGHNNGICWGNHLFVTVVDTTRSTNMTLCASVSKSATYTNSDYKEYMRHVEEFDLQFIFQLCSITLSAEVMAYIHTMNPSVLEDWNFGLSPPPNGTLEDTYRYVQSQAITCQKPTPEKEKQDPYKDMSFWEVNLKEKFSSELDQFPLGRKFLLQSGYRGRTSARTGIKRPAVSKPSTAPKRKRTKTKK

HPV31 VLP = target: T4, HPV31 VLP (HPV31, UniProt P17388 1-504); assay: SPR, BIACORE 3000
T4 sequence: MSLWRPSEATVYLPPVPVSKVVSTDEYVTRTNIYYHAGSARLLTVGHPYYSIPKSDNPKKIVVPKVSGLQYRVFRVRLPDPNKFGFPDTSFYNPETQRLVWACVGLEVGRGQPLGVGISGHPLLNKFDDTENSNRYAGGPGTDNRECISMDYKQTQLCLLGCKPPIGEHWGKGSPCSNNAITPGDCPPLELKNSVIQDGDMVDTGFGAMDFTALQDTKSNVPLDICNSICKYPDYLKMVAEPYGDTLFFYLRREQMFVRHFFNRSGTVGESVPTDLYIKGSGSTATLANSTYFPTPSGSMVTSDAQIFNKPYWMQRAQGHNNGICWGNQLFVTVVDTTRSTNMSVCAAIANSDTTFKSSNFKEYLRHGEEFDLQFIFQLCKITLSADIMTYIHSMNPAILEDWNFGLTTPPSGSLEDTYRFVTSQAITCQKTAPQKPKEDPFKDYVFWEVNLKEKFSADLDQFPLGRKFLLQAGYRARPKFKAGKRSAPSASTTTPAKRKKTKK

HPV45 VLP = target: T5, HPV45 VLP (HPV45, UniProt P36741 30-539); assay: SPR, BIACORE 3000
T5 sequence: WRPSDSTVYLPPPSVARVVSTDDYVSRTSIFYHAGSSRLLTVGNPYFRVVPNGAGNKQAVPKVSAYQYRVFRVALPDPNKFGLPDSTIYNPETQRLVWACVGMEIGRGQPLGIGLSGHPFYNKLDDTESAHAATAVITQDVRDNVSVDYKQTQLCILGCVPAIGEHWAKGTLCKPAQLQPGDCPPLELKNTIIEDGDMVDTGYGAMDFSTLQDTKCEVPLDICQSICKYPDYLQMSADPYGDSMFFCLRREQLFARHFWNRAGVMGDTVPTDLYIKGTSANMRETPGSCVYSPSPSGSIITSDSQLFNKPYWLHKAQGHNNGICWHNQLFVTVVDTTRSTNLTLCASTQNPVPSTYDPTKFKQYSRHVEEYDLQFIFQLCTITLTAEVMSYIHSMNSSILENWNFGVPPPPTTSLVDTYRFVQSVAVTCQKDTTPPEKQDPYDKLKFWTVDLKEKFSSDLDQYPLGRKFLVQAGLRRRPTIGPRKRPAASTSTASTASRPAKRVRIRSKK

HPV-18 L1 VLP = target: T6, HPV-18 L1 VLP (HPV18, UniProt P06794 62-568); assay: indirect ELISA, VLP 2 ug/ml coated
T6 construct: also called HPV18 VLP
T6 sequence: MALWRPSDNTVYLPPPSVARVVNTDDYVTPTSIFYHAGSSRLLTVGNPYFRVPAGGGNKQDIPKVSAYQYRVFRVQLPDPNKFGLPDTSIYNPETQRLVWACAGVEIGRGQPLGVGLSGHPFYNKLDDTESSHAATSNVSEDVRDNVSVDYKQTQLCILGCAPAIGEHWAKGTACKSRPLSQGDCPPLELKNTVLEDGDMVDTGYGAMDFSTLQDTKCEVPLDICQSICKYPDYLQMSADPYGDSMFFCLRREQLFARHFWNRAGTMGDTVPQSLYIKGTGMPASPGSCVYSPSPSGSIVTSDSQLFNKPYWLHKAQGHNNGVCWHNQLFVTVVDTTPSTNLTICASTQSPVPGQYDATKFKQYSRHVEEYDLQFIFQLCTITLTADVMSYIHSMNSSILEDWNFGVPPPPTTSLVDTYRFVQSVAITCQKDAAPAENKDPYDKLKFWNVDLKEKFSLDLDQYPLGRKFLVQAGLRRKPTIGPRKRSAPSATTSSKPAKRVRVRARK

HPV-58 L1 VLP = target: T7, HPV-58 L1 VLP (HPV58, UniProt P26535 27-524); assay: indirect ELISA, VLP 2 ug/ml coated
T7 construct: also called HPV58VLP
T7 sequence: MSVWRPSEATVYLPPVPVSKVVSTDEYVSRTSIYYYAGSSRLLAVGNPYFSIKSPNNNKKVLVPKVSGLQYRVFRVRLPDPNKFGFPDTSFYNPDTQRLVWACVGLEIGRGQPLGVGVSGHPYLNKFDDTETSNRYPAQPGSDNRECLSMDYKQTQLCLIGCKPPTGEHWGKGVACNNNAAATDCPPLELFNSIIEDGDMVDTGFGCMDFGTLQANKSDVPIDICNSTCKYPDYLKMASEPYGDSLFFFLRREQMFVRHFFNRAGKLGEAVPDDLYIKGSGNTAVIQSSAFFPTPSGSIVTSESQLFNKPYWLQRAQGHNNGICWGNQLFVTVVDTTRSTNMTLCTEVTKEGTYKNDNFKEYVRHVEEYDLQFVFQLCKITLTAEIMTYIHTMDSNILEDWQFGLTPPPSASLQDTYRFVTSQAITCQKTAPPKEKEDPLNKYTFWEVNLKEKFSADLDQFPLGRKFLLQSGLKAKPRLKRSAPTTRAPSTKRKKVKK

Chain of UniProt P03101 (P03101 whole entry): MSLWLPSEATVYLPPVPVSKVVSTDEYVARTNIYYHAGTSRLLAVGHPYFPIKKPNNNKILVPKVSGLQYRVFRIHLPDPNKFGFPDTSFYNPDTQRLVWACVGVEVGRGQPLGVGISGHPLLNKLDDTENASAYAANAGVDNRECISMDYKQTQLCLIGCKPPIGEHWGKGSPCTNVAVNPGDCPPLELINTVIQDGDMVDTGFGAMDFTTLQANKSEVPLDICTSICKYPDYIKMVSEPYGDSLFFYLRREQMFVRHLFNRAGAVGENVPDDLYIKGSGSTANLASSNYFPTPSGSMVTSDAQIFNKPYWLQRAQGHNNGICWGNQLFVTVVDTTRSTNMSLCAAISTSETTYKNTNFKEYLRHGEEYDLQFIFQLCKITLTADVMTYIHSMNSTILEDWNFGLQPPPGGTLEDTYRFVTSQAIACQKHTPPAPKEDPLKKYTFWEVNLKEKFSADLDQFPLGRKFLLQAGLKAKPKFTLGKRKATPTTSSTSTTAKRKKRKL

Binder | OD450 [1] [OD450] | 抑制率 [2] [%] | 信号强度 (ELISA) [3] | binding result (HPV33 VLP) | binding result (HPV6 VLP) | binding result (HPV11 VLP) | binding result (HPV31 VLP) | binding result (HPV45 VLP) | binding result (HPV-18 L1 VLP) | binding result (HPV-58 L1 VLP)
单克隆抗体4G12 (杂交瘤细胞株4G12, CGMCC 11298) (antibody, V domains shown) VH: VKLQQSGAELVKPGASVKLSCTASGFNIKDTYMHWVKQRPEQGLEWIGRIDPANGNPQYDPKFQGKATITADTSSNTACLQLSSLTSEDTAVFYCAREVGGYYFDYWGQGTTVTVSS VL: DIQLTRSPAIMSASPGEKVTITCSASSSVSYMHWFQQKPGTSPKLWIYSTSNLASGVPARFSGSGSGTSYSLTISRMEAEDAATYYCQQRSSYPWTFGGGTKLEI | > 1 | > 40 | > 1 | – | – | – | – | – | – | –
单克隆抗体5A6 (杂交瘤细胞株5A6, CGMCC 11299) (antibody, V domains shown, Capture antibody of the sandwich kit; also called 克隆5A6) VH: VKLQQSGAELVKPGASVKLSCTASGFNIKDTYMHWVKQRPEQGLEWIGRIDPANGNTEYDPNFQGKATITSDTSSNTAYLHLSSLTSEDTAVYYCAREVGGYYFDYWGQGTTVTVSS VL: DIQLTQSPSSMSASLGDRITITCQATQDIVKNLNWYQQKPGKPPSFLIYYATELAEGVPSRFSGSGSGSDYSLTISNLESEDFADYYCLQFYEFPLTFGAGTKLEI | > 1 | > 40 | > 1 | no binding (tested: antibody up to 20nmol/L) | no binding (tested: antibody up to 20nmol/L) | no binding (tested: antibody up to 20nmol/L) | no binding (tested: antibody up to 20nmol/L) | no binding (tested: antibody up to 20nmol/L) | no binding (tested: 0.3μg/ml) | no binding (tested: 0.3μg/ml)
